From PMC3354639 (Chembiochem, 2012)
No end group written: not given here. *: point of attachment. BODIPY(FL) = CC1=CC(C)=[N+]2C1=Cc1ccc(CCC(=O)*)n1[B-]2(F)F

Assays:
Test in all cases: flow cytometry on cells
[1] = target: MDM2-polyArg (construct 2) (UniProt Q00987 17-125)
[2] = target: autoinhibited-substrate-MDM2-polyArg (construct 1) (UniProt Q00987 25-125)
[3] = target: construct 1 cleaved at the Ala-Arg site by OmpT-AR1 (MDM2-polyArg part) (UniProt Q00987 25-125)

{BODIPY(FL)}-GTSFAEYWNLLSP [PMI peptide conjugated to the fluorescent dye BODIPY] was tested, and the binding result [1] was “binds”, the “fold reduction in fluorescence against construct 2” value [2] was > 10 fold and the binding result [3] was “binds”.
